Test results published in patent US20120301930A1 (YEDA RESEARCH AND DEVELOPMENT, published 2012).

Key:
[1] = target: T1, f-5A chimera (catalytic module of T. fusca family-5 endoglucanase Cel5A fused to a dockerin from Ruminococcus …); experiment: non-denaturing PAGE mobility shift, equimolar mixture
T1 construct: Recombinant chimera expressed in E. coli; all enzyme constructs were designed to contain a His-tag; also called variant Cel5A
T1 chain: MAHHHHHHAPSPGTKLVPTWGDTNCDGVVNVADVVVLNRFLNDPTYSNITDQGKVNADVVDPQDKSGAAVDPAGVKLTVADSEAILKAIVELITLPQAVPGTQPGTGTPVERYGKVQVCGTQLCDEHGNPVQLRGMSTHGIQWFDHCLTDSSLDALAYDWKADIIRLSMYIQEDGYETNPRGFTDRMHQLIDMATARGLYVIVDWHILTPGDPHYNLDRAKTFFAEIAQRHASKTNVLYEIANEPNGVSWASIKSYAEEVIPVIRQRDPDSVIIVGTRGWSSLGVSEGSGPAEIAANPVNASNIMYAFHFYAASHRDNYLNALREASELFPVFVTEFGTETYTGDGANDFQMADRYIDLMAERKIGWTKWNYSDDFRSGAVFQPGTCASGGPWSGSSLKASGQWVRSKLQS

[2] = target: T2, 11A-a chimera (catalytic module of T. fusca Xyn11A attached directly to dockerin B from Acetivibrio …); experiment: affinity-based ELISA; complex formation also by non-denaturing PAGE
T2 construct: Recombinant chimera expressed in E. coli, purified on a Ni column (His-tag)

[3] = target: T3, 11A-XBM-a chimera (catalytic module of T. fusca Xyn11A together with its adjacent XBM attached to dockerin B …); experiment: as above
T3 construct: Recombinant chimera expressed in E. coli, purified on a Ni column (His-tag); also called variant Xyn11A

Measured: binding result

B1: Scaf-AF chimeric scaffoldin (cohesin 3 from A. cellulolyticus scaffoldin C, CBM3a from C. thermocellum, cohesin 1 from R. flavefaciens scaffoldin B) (other)
chain: MDLQVDIGSTSGKAGSVVSVPITFTNVPKSGIYALSFRTNFDPQKVTVASIDAGSLIENASDFTTYYNNENGFASMTFEAPVDRARIIDSDGVFATINFKVSDSAKVGELYNITTNSAYTSFYYSGTDEIKNVVYNDGKIEVIASVPTNTPTNTPANTPVSGNLKVEFYNSNPSDTTNSINPQFKVTNTGSSAIDLSKLTLRYYYTVDGQKDQTFWCDHAAIIGSNGSYNGITSNVKGTFVKMSSSTNNADTYLEISFTGGTLEPGAHVQIQGRFAKNDWSNYTQSNDYSFKSASQFVEWDQVTAYLNGVLVWGKEPGGSVVPSTQPVTTPPATTKPPATTIPPSEDPAGGLSAVQPNVSLGEVLDVSANRTAADGTVEWLIPTVTAAPGQTVTMPVVVKSSSLAVAGAQFKIQAATGVSYSSKTDGDAYGSGIVYNNSKYAFGQGAGRGIVAADDSVVLTLAYTVPADCAEGTYDVKWSDAFVSDTDGQNITSKVTLTDGAIIVHHHHHH
binds: all assays above
